Measurements: publication PMC8498191, “Structural and Mechanistic Insights Into Dimethylsulfoxide Formation Through Dimethylsulfide Oxidation” (Frontiers in Microbiology, 2021)

Substrate: NC(=O)C1=CN([C@@H]2O[C@H](COP(=O)(O)OP(=O)(O)OC[C@H]3O[C@@H](n4cnc5c(N)ncnc54)[C@H](OP(=O)(O)O)[C@@H]3O)[C@@H](O)[C@H]2O)C=CC1
Experiment: purified protein
Assay type: biochemical, Candidatus Pelagibacter sp. HTCC7211
Details: 1 mM DMS, 1.5 μM enzyme

| Protein | Km [µM] | kcat [s⁻¹] |
| --- | --- | --- |
| Tmm7211 (Candidatus Pelagibacter sp. HTCC7211; D314E) (protein, full-length synthesized gene (1335 bp, 444 residues, 52 kDa), N-terminal His tag (pET28a), E. coli BL21(DE3); Ni-NTA and Superdex-200) MSKVAIIGAGPCGLSILRAFEHLEKKGEKIPEIVCFEKQESWGGLWNYNWRTGSDQYGDPVPNSMYRYLWSNGPKECLEFADYSFDQHFGKSIPSFPPREVLQDYILGRVSKGNIKNKIKFNTRVINTVYRNDKFEINYQDKVNDKTLSDTFDYLVVSTGHFSVPFIPEYEGMSSFPGRIMHSHDFRDAEEFRGKNVIVLGSSYSAEDVALQCNKYGAKSVTIGYRHNPMGFKWPKGMKEVHYLDKLDGKKAIFKDGTEQDADVVILCTGYLHHFPFLDESLKLKTHNRLYPPKLYKGVVWQDNHKLLYLGMQEQFHTFNMFDCQAWFARDVIMDKIKMPSDDEIDKDINKWVSMEEKLENPDQMIDFQTEYTKELHNISDYPKIDFELIRKHFKEWEHHKVEDILTYRNKSFSSPVTGSVAPVHHTPWEKAMDDSMKTFLNKR | 9.7 ± 0.5 | 0.0867 ± 0.00333 |
| Tmm7211 (Candidatus Pelagibacter sp. HTCC7211; H227A) (protein, full-length synthesized gene (1335 bp, 444 residues, 52 kDa), N-terminal His tag (pET28a), E. coli BL21(DE3); Ni-NTA and Superdex-200) MSKVAIIGAGPCGLSILRAFEHLEKKGEKIPEIVCFEKQESWGGLWNYNWRTGSDQYGDPVPNSMYRYLWSNGPKECLEFADYSFDQHFGKSIPSFPPREVLQDYILGRVSKGNIKNKIKFNTRVINTVYRNDKFEINYQDKVNDKTLSDTFDYLVVSTGHFSVPFIPEYEGMSSFPGRIMHSHDFRDAEEFRGKNVIVLGSSYSAEDVALQCNKYGAKSVTIGYRANPMGFKWPKGMKEVHYLDKLDGKKAIFKDGTEQDADVVILCTGYLHHFPFLDESLKLKTHNRLYPPKLYKGVVWQDNHKLLYLGMQDQFHTFNMFDCQAWFARDVIMDKIKMPSDDEIDKDINKWVSMEEKLENPDQMIDFQTEYTKELHNISDYPKIDFELIRKHFKEWEHHKVEDILTYRNKSFSSPVTGSVAPVHHTPWEKAMDDSMKTFLNKR | 41.2 ± 2.3 | 0.0417 ± 0.00333 |
| Tmm7211 (Candidatus Pelagibacter sp. HTCC7211; S203A) (protein, full-length synthesized gene (1335 bp, 444 residues, 52 kDa), N-terminal His tag (pET28a), E. coli BL21(DE3); Ni-NTA and Superdex-200) MSKVAIIGAGPCGLSILRAFEHLEKKGEKIPEIVCFEKQESWGGLWNYNWRTGSDQYGDPVPNSMYRYLWSNGPKECLEFADYSFDQHFGKSIPSFPPREVLQDYILGRVSKGNIKNKIKFNTRVINTVYRNDKFEINYQDKVNDKTLSDTFDYLVVSTGHFSVPFIPEYEGMSSFPGRIMHSHDFRDAEEFRGKNVIVLGSAYSAEDVALQCNKYGAKSVTIGYRHNPMGFKWPKGMKEVHYLDKLDGKKAIFKDGTEQDADVVILCTGYLHHFPFLDESLKLKTHNRLYPPKLYKGVVWQDNHKLLYLGMQDQFHTFNMFDCQAWFARDVIMDKIKMPSDDEIDKDINKWVSMEEKLENPDQMIDFQTEYTKELHNISDYPKIDFELIRKHFKEWEHHKVEDILTYRNKSFSSPVTGSVAPVHHTPWEKAMDDSMKTFLNKR | 134.8 ± 11.1 | 0.0167 ± 0.00167 |
| Tmm7211 (Candidatus Pelagibacter sp. HTCC7211; N288A) (protein, full-length synthesized gene (1335 bp, 444 residues, 52 kDa), N-terminal His tag (pET28a), E. coli BL21(DE3); Ni-NTA and Superdex-200) MSKVAIIGAGPCGLSILRAFEHLEKKGEKIPEIVCFEKQESWGGLWNYNWRTGSDQYGDPVPNSMYRYLWSNGPKECLEFADYSFDQHFGKSIPSFPPREVLQDYILGRVSKGNIKNKIKFNTRVINTVYRNDKFEINYQDKVNDKTLSDTFDYLVVSTGHFSVPFIPEYEGMSSFPGRIMHSHDFRDAEEFRGKNVIVLGSSYSAEDVALQCNKYGAKSVTIGYRHNPMGFKWPKGMKEVHYLDKLDGKKAIFKDGTEQDADVVILCTGYLHHFPFLDESLKLKTHARLYPPKLYKGVVWQDNHKLLYLGMQDQFHTFNMFDCQAWFARDVIMDKIKMPSDDEIDKDINKWVSMEEKLENPDQMIDFQTEYTKELHNISDYPKIDFELIRKHFKEWEHHKVEDILTYRNKSFSSPVTGSVAPVHHTPWEKAMDDSMKTFLNKR | 61.1 ± 4.0 | 0.0217 ± 0.00167 |
| Tmm7211 (Candidatus Pelagibacter sp. HTCC7211; D314A) (protein, full-length synthesized gene (1335 bp, 444 residues, 52 kDa), N-terminal His tag (pET28a), E. coli BL21(DE3); Ni-NTA and Superdex-200) MSKVAIIGAGPCGLSILRAFEHLEKKGEKIPEIVCFEKQESWGGLWNYNWRTGSDQYGDPVPNSMYRYLWSNGPKECLEFADYSFDQHFGKSIPSFPPREVLQDYILGRVSKGNIKNKIKFNTRVINTVYRNDKFEINYQDKVNDKTLSDTFDYLVVSTGHFSVPFIPEYEGMSSFPGRIMHSHDFRDAEEFRGKNVIVLGSSYSAEDVALQCNKYGAKSVTIGYRHNPMGFKWPKGMKEVHYLDKLDGKKAIFKDGTEQDADVVILCTGYLHHFPFLDESLKLKTHNRLYPPKLYKGVVWQDNHKLLYLGMQAQFHTFNMFDCQAWFARDVIMDKIKMPSDDEIDKDINKWVSMEEKLENPDQMIDFQTEYTKELHNISDYPKIDFELIRKHFKEWEHHKVEDILTYRNKSFSSPVTGSVAPVHHTPWEKAMDDSMKTFLNKR | 32.0 ± 0.6 | 0.035 ± 0.00167 |
| Tmm7211 (Candidatus Pelagibacter sp. HTCC7211; R409A) (protein, full-length synthesized gene (1335 bp, 444 residues, 52 kDa), N-terminal His tag (pET28a), E. coli BL21(DE3); Ni-NTA and Superdex-200) MSKVAIIGAGPCGLSILRAFEHLEKKGEKIPEIVCFEKQESWGGLWNYNWRTGSDQYGDPVPNSMYRYLWSNGPKECLEFADYSFDQHFGKSIPSFPPREVLQDYILGRVSKGNIKNKIKFNTRVINTVYRNDKFEINYQDKVNDKTLSDTFDYLVVSTGHFSVPFIPEYEGMSSFPGRIMHSHDFRDAEEFRGKNVIVLGSSYSAEDVALQCNKYGAKSVTIGYRHNPMGFKWPKGMKEVHYLDKLDGKKAIFKDGTEQDADVVILCTGYLHHFPFLDESLKLKTHNRLYPPKLYKGVVWQDNHKLLYLGMQDQFHTFNMFDCQAWFARDVIMDKIKMPSDDEIDKDINKWVSMEEKLENPDQMIDFQTEYTKELHNISDYPKIDFELIRKHFKEWEHHKVEDILTYANKSFSSPVTGSVAPVHHTPWEKAMDDSMKTFLNKR | 44.9 ± 5.6 | 0.045 ± 0.00167 |
